These results are taken from PMC9876287, “Characterization of a new CCCTC-binding factor binding site as a dual regulator of Epstein-Barr virus latent infection”.

For the data set, the target named is T1, CTCF (UniProt P49711 1-727).
T1 sequence: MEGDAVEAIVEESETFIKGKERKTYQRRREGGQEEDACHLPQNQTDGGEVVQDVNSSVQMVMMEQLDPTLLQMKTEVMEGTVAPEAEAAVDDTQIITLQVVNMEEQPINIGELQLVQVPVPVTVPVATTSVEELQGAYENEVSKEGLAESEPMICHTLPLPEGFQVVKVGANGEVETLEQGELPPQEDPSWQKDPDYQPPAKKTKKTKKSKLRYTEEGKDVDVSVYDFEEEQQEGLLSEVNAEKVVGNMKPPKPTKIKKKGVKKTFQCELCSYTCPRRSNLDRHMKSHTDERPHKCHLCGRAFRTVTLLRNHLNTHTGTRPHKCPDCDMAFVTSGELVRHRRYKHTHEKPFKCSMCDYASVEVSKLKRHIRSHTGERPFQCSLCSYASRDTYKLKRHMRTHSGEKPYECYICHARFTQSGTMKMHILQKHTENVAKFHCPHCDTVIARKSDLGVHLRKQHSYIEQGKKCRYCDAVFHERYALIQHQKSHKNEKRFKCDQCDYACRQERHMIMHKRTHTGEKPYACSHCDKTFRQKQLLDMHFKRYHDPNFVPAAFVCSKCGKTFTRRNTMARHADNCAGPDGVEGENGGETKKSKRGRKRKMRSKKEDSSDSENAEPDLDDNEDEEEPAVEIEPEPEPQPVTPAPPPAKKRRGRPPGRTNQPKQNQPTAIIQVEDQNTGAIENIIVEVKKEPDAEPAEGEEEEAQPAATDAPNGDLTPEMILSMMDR
In words: MST; sonicated salmon sperm DNA competitor (2000 ng); MST: 125 nM DNA, 0-12.5 uM protein, 1X EMSA buffer (from 4X: 100 mM KCl, 20 mM HEPES pH 8.0, 0.2 mM EDTA, 20% glycerol) with 1 mM DTT (fresh), salmon sperm DNA; 60 min on ice. To be noted: protein: recombinant; tags: His; label: 5' FAM (5-carboxyfluorescein) on forward strand; blunt. In general terms: In EMSA bound probe runs differently from free probe, usually more slowly.

The Kd is the free concentration of one partner at which half of the binding sites on the other are occupied at equilibrium, for simple one-to-one binding.

B1: Wt S13 49-mer (dsDNA)
DNA 1: TTTGTTAATCTTTAGTGGGAACTAGTGGGAGTGCTGTGCCTCGGGTACC
DNA 2: GGTACCCGAGGCACAGCACTCCCACTAGTTCCCACTAAAGATTAACAAA
In the case of B1, the Kd turned out to be 4.8 ± 2.3 µM.
